T1: mouse recombinant NKG2D-Fc (mouse; human, UniProt O54709 90-232)
T1 construct: extracellular domain; also called recombinant mouse NKG2D-Fc; Mouse NKG2D-Fc-biotin; not shown: human IgG1 Fc domain
T1 sequence (looked up): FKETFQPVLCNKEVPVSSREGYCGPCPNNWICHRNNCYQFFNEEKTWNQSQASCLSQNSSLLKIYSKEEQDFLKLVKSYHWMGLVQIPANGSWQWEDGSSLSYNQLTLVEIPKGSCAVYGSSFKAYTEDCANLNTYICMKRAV

T2: cynomolgus recombinant NKG2D-Fc (cynomolgus; human, UniProt P61252 73-216)
T2 construct: extracellular domain; also called cynomolgus NKG2D-Fc; not shown: human IgG1 Fc domain
T2 sequence (looked up): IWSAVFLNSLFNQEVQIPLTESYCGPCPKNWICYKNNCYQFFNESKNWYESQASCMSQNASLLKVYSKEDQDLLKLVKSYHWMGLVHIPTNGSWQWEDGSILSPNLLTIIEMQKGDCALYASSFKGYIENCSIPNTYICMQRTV

T3: human recombinant NKG2D-Fc (human, UniProt P26718 73-216)
T3 construct: extracellular domain; also called recombinant human NKG2D-Fc; NKG2D-Fc fusion protein; not shown: human IgG1 Fc domain
T3 sequence (looked up): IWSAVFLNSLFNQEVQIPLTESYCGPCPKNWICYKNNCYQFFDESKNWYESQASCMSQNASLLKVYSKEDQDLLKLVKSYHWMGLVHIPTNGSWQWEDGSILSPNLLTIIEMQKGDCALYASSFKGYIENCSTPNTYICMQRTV


Experiments:
Experiment in all cases: ELISA on coated NKG2D-Fc;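 further: titrated NKG2D binders added to plates coated with human, mouse or cynomolgus NKG2D ectodomain–human IgG1 Fc fusions, detected by HRP anti-human kappa antibody with TMB, absorbance at 450 nm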
[1] = molecular target: T1, mouse recombinant NKG2D-Fc
Description: (§1) The nucleic acid sequences of human, mouse or cynomolgus NKG2D ectodomains were fused with nucleic acid sequences encoding human IgG1 Fc domains and introduced into mammalian cells to be expressed. After purification, NKG2D-Fc fusion proteins were adsorbed to wells of microplates. After blocking the wells with bovine serum albumin to prevent non-specific binding, NKG2D-binding domains were titrated and added to the wells pre-adsorbed with NKG2D-Fc fusion proteins. Primary antibody binding was detected using a secondary antibody which was conjugated to horseradish peroxidase and specifically recognizes a human kappa light chain to avoid Fc cross-reactivity. 3,3′,5,5′-Tetramethylbenzidine (TMB), a substrate for horseradish peroxidase, was added to the wells to visualize the binding signal, whose absorbance was measured at 450 nm and corrected at 540 nM.

[2] = molecular target: T2, cynomolgus recombinant NKG2D-Fc
Description: as §1

[3] = molecular target: T3, human recombinant NKG2D-Fc
Description: as §1

Row | Binder | binding result [1] | binding result [2] | binding result [3]
1 | ADI-27705 (antibody, V domains shown) VH: QVQLQQWGAGLLKPSETLSLTCAVYGGSFSGYYWSWIRQPPGKGLEWIGEIDHSGSTNYNPSLKSRVTISVDTSKNQFSLKLSSVTAADTAVYYCARARGPWSFDPWGQGTLVTVSS VL: not shown | binds | binds | binds
2 | ADI-29403 (antibody, V domains shown) VH: QVQLQQWGAGLLKPSETLSLTCAVYGGSFSGYYWSWIRQPPGKGLEWIGEIDHSGSTNYNPSLKSRVTISVDTSKNQFSLKLSSVTAADTAVYYCARARGPWSFDPWGQGTLVTVSS VL: not shown | binds | binds | binds
3 | ADI-29407 (antibody, V domains shown) VH: QVQLQQWGAGLLKPSETLSLTCAVYGGSFSGYYWSWIRQPPGKGLEWIGEIDHSGSTNYNPSLKSRVTISVDTSKNQFSLKLSSVTAADTAVYYCARARGPWSFDPWGQGTLVTVSS VL: DIQMTQSPSTLSASVGDRVTITCRASQSISSWLAWYQQKPGKAPKLLIYKASSLESGVPSRFSGSGSGTEFTLTISSLQPDDFATYYCQQYQSFPTFGGGTKVEIK | binds | binds | binds
4 | ADI-27741 (antibody, V domains shown) VH: QVQLQQWGAGLLKPSETLSLTCAVYGGSFSGYYWSWIRQPPGKGLEWIGEIDHSGSTNYNPSLKSRVTISVDTSKNQFSLKLSSVTAADTAVYYCARARGPWSFDPWGQGTLVTVSS VL: DIQMTQSPSTLSASVGDRVTITCRASQSIGSWLAWYQQKPGKAPKLLIYKASSLESGVPSRFSGSGSGTEFTLTISSLQPDDFATYYCQQSNSYYTFGGGTKVEIK | binds | binds | binds
5 | ADI-27743 (antibody, V domains shown) VH: QVQLQQWGAGLLKPSETLSLTCAVYGGSFSGYYWSWIRQPPGKGLEWIGEIDHSGSTNYNPSLKSRVTISVDTSKNQFSLKLSSVTAADTAVYYCARARGPWSFDPWGQGTLVTVSS VL: not shown | binds | binds | binds
6 | ADI-29426 (antibody, V domains shown) VH: QVQLQQWGAGLLKPSETLSLTCAVYGGSFSGYYWSWIRQPPGKGLEWIGEIDHSGSTNYNPSLKSRVTISVDTSKNQFSLKLSSVTAADTAVYYCARARGPWSFDPWGQGTLVTVSS VL: DIQMTQSPSTLSASVGDRVTITCRASQSIGSWLAWYQQKPGKAPKLLIYKASSLESGVPSRFSGSGSGTEFTLTISSLQPDDFATYYCQQYHSFPTFGGGTKVEIK | binds | binds | binds
7 | ADI-29424 (antibody, V domains shown) VH: QVQLQQWGAGLLKPSETLSLTCAVYGGSFSGYYWSWIRQPPGKGLEWIGEIDHSGSTNYNPSLKSRVTISVDTSKNQFSLKLSSVTAADTAVYYCARARGPWSFDPWGQGTLVTVSS VL: DIQMTQSPSTLSASVGDRVTITCRASQSISSWLAWYQQKPGKAPKLLIYKASSLESGVPSRFSGSGSGTEFTLTISSLQPDDFATYYCQQYDSFITFGGGTKVEIK | binds | binds | binds
8 | ADI-29404 (antibody, V domains shown, also called F04) VH: QVQLQQWGAGLLKPSETLSLTCAVYGGSFSGYYWSWIRQPPGKGLEWIGEIDHSGSTNYNPSLKSRVTISVDTSKNQFSLKLSSVTAADTAVYYCARARGPWSFDPWGQGTLVTVSS VL: DIQMTQSPSTLSASVGDRVTITCRASQSISSWLAWYQQKPGKAPKLLIYKASSLESGVPSRFSGSGSGTEFTLTISSLQPDDFATYYCEQYDSYPTFGGGTKVEIK | binds | binds | binds
9 | ADI-27740 (antibody, V domains shown, also called A40) VH: QVQLQQWGAGLLKPSETLSLTCAVYGGSFSGYYWSWIRQPPGKGLEWIGEIDHSGSTNYNPSLKSRVTISVDTSKNQFSLKLSSVTAADTAVYYCARARGPWSFDPWGQGTLVTVSS VL: DIQMTQSPSTLSASVGDRVTITCRASQSIGSWLAWYQQKPGKAPKLLIYKASSLESGVPSRFSGSGSGTEFTLTISSLQPDDFATYYCQQYHSFYTFGGGTKVEIK | binds | binds | binds
10 | ADI-29447 (antibody, V domains shown, also called F47) VH: QVQLQQWGAGLLKPSETLSLTCAVYGGSFSGYYWSWIRQPPGKGLEWIGEIDHSGSTNYNPSLKSRVTISVDTSKNQFSLKLSSVTAADTAVYYCARARGPWSFDPWGQGTLVTVSS VL: DIQMTQSPSTLSASVGDRVTITCRASQSISSWLAWYQQKPGKAPKLLIYKASSLESGVPSRFSGSGSGTEFTLTISSLQPDDFATYYCQQYDTFITFGGGTKVEIK | binds | binds | binds

Next, values leading:

Row | binding result [1] | binding result [2] | binding result [3] | Binder
11 | binds | binds | binds | ADI-29429 (antibody, V domains shown) VH: QVQLQQWGAGLLKPSETLSLTCAVYGGSFSGYYWSWIRQPPGKGLEWIGEIDHSGSTNYNPSLKSRVTISVDTSKNQFSLKLSSVTAADTAVYYCARARGPWSFDPWGQGTLVTVSS VL: DIQMTQSPSTLSASVGDRVTITCRASQSIGSWLAWYQQKPGKAPKLLIYKASSLESGVPSRFSGSGSGTEFTLTISSLQPDDFATYYCQQYELYSYTFGGGTKVEIK
12 | binds | binds | binds | ADI-29401 (antibody, V domains shown) VH: QVQLQQWGAGLLKPSETLSLTCAVYGGSFSGYYWSWIRQPPGKGLEWIGEIDHSGSTNYNPSLKSRVTISVDTSKNQFSLKLSSVTAADTAVYYCARARGPWSFDPWGQGTLVTVSS VL: DIQMTQSPSTLSASVGDRVTITCRASQSIGSWLAWYQQKPGKAPKLLIYKASSLESGVPSRFSGSGSGTEFTLTISSLQPDDFATYYCQQYDIYPTFGGGTKVEIK
13 | binds | binds | binds | ADI-29425 (antibody, V domains shown) VH: QVQLQQWGAGLLKPSETLSLTCAVYGGSFSGYYWSWIRQPPGKGLEWIGEIDHSGSTNYNPSLKSRVTISVDTSKNQFSLKLSSVTAADTAVYYCARARGPWSFDPWGQGTLVTVSS VL: not shown
14 | binds | binds | binds | ADI-29399 (antibody, V domains shown) VH: QVQLQQWGAGLLKPSETLSLTCAVYGGSFSGYYWSWIRQPPGKGLEWIGEIDHSGSTNYNPSLKSRVTISVDTSKNQFSLKLSSVTAADTAVYYCARARGPWSFDPWGQGTLVTVSS VL: not shown
15 | binds | binds | binds | ADI-29421 (antibody, V domains shown) VH: QVQLQQWGAGLLKPSETLSLTCAVYGGSFSGYYWSWIRQPPGKGLEWIGEIDHSGSTNYNPSLKSRVTISVDTSKNQFSLKLSSVTAADTAVYYCARARGPWSFDPWGQGTLVTVSS VL: not shown
16 | binds | binds | binds | ADI-29419 (antibody, V domains shown) VH: QVQLQQWGAGLLKPSETLSLTCAVYGGSFSGYYWSWIRQPPGKGLEWIGEIDHSGSTNYNPSLKSRVTISVDTSKNQFSLKLSSVTAADTAVYYCARARGPWSFDPWGQGTLVTVSS VL: not shown
17 | binds | binds | binds | ADI-28226 (antibody, V domains shown, also called C26) VH: QVQLQQWGAGLLKPSETLSLTCAVYGGSFSGYYWSWIRQPPGKGLEWIGEIDHSGSTNYNPSLKSRVTISVDTSKNQFSLKLSSVTAADTAVYYCARARGPWSFDPWGQGTLVTVSS VL: DIQMTQSPSTLSASVGDRVTITCRASQSISSWLAWYQQKPGKAPKLLIYKASSLESGVPSRFSGSGSGTEFTLTISSLQPDDFATYYCQQYGSFPITFGGGTKVEIK
18 | binds | binds | binds | ADI-29405 (antibody, V domains shown) VH: QVQLQQWGAGLLKPSETLSLTCAVYGGSFSGYYWSWIRQPPGKGLEWIGEIDHSGSTNYNPSLKSRVTISVDTSKNQFSLKLSSVTAADTAVYYCARARGPWSFDPWGQGTLVTVSS VL: DIQMTQSPSTLSASVGDRVTITCRASQSISSWLAWYQQKPGKAPKLLIYKASSLESGVPSRFSGSGSGTEFTLTISSLQPDDFATYYCQQYGSFPTFGGGTKVEIK
19 | binds | – | binds | ADI-29443 (antibody, V domains shown, also called F43) VH: QLQLQESGPGLVKPSETLSLTCTVSGGSISSSSYYWGWIRQPPGKGLEWIGSIYYSGSTYYNPSLKSRVTISVDTSKNQFSLKLSSVTAADTAVYYCARGSDRFHPYFDYWGQGTLVTVSS VL: EIVLTQSPATLSLSPGERATLSCRASQSVSRYLAWYQQKPGQAPRLLIYDASNRATGIPARFSGSGSGTDFTLTISSLEPEDFAVYYCQQFDTWPPTFGGGTKVEIK
20 | binds | binds | binds | ADI-27727 (antibody, V domains shown) VH: QVQLVQSGAEVKKPGSSVKVSCKASGGTFSSYAISWVRQAPGQGLEWMGGIIPIFGTANYAQKFQGRVTITADESTSTAYMELSSLRSEDTAVYYCARGDSSIRHAYYYYGMDVWGQGTTVTVSS VL: not shown

From patent US20200002436A1 (DRAGONFLY THERAPEUTICS, published 2020)
